{
  "source": "patent US20060083715A1",
  "about": "(published 2006)",
  "binders": {"B1": {"name": "[F111N+R113T] human IFNB variant (ligand)", "chain": "MSYNLLGFLQRSSNFQCQKLLWQLNGRLEYCLKDRMNFDIPEEIKQLQQFQKEDAALTIYEMLQNIFAIFRQDSSSTGWNETIVENLLANVYHQINHLKTVLEEKLEKEDNTTGKLMSSLHLKRYYGRILHYLKAKEYSHCAWTIVRVEILRNFYFINRLTGYLRN", "modifications": "introduced in vivo N-glycosylation site at position 111"}},
  "molecular_target": "T1, Interferon type I receptors on HeLa cells (UniProt P17181 28-557; P48551 27-515, limits assumed)",
  "T1 sequence (looked up) 1": "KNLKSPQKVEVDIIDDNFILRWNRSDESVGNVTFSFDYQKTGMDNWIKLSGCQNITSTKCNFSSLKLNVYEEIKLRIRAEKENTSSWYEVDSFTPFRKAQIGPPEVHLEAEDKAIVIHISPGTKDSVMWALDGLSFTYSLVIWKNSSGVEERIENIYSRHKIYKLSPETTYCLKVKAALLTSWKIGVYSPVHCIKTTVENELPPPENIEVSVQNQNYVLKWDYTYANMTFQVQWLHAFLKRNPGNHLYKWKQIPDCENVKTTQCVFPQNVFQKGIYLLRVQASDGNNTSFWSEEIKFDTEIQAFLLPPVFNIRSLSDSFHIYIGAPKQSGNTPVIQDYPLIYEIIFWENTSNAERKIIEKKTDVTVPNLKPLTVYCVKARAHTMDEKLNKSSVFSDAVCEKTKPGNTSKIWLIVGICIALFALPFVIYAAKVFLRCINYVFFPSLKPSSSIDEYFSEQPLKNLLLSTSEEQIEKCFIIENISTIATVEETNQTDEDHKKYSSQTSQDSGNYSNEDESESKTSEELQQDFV",
  "T1 sequence (looked up) 2": "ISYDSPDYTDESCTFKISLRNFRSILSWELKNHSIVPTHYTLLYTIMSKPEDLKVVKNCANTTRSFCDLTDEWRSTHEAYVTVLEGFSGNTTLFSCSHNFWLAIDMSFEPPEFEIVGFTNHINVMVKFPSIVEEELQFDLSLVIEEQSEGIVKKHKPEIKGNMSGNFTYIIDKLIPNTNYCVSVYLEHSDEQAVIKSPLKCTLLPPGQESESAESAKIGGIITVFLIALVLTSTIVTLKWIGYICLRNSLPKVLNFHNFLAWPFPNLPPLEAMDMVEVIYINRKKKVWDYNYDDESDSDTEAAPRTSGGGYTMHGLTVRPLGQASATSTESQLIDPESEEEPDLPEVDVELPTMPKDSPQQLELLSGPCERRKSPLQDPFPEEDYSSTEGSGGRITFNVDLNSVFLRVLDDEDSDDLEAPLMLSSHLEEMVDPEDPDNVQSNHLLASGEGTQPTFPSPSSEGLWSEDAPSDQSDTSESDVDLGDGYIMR",
  "assay": "cell-based or functional assay",
  "data": [
    {"binder": "B1", "values": [
      {"measurement": "specific activity relative to wild-type human IFNB (primary assay)", "value": "~2 fold of wild-type human IFNB"}
    ]}
  ]
}
